Laboratory results from patent publication US20170355769A1 (AbbVie / Abbott, published 2017).
Where a chain is given by its changes, count along the chain named.

B1: Ab10 (antibody, V domains shown)
VH: DVQLQESGPGLVKPSQSLSLTCTVTGYSITSDYAWNWIRQFPGNRLEWMGHINYSGITNYNPSLKSRISITRDTSKNQFFLQLYSVTTEDTATYFCARRSLFYYYGSSLYAMDYWGQGTSVTVSS
VL: DVVMTQSPFSLPVSLGDQASISCRSSQSLVHSNGNTYLHWYLQKPGQSPKLLIYKVSNRFSGVPDRFSGSGSGTDFTLKISRVEAEDLGVYFCSQSTHVPWTFGGGTKLEIK
notes: mouse IgG2b/k
B2: Ab12 (antibody, mouse IgG1, V domains shown)
VH: EVQLVESGGGLVKPGGSLKLSCAASGFTFSSYAMSWVRQTPEKRLEWVATISSGTNYTYYPDSVKGRFTISRDNAKNTLYLQMTSLRSEDTAMYYCARQGRYSWIAYWGQGTLVTVSA
VL: DIVLTQSPASLAVSLGQRATISCRASKSVSTSDYSYMHWNQQKPGQPPKLLIYLASNLESGVPARFSGSGSGTDFTLNIHPVEEEDAATYYCQHSRELLTFGAGTKLELK
notes: mouse IgG1/k
B3: Ab5 (antibody, mouse IgG1, V domains shown)
VH: QVQLQQPGDELVKPGASVKLSCKTSGYTFTTDWMHWVKQRPGQGLEWIGMIHPNSGTTNYNEKFKSKAALTVDKSSSTACMQLSSLTSEDSAVYYCARSYWKWYFDVWGTGTTVTVSS
VL: QIVLTQSPAIMSASLGEEITLTCSASSSVSYMHWYQQKSGTSPKLLIYSTSNLASGVPSRFSGSGSGTFYSLTISSVEAEDSADYYCHQWTSYMYTFGGGTKLEIK
notes: mouse IgG1/k
B4: Ab14 (antibody, mouse IgG1, V domains shown)
VH: EVKLVESGGGLVKPGGSLKLSCAASGFTFSSYGMSWVRQTPEKRLEWVATISGGGTNTYYPDSVEGRFTISRDNAKNFLYLQMSSLRSEDTALYYCARHYGSQTMDYWGQGTSVTVSS
VL: DIQMTQSPASLSASVGETVTITCRTSGNIHNYLTWYQQKQGKSPQLLVYNAKTLADGVPSRFSGSGSGTQFSLKINSLQPEDFGSYYCQHFWSIMWTFGGGTKLEIK
notes: mouse IgG1/k
B5: Ab13 (antibody, mouse IgG1, V domains shown)
VH: DVQLQESGPDLVKPSQSLSLTCTVTGYSITSGYSWHWIRQFPGNKLEWMGYIHSSGSTNYNPSLKSRISINRDTSKNQFFLQLNSVTTEDTATYYCAGYDDYFEYWGQGTTLTVSS
VL: DIVMTQSQKFMSTSVGDRVSVTCKASQNVGFNVAWYQQKPGQSPKALIYSASYRYSGVPDRFTGSGSGTDFTLTISNVQSEDLAEYFCQQYNSYPFTFGSGTKLEIK
notes: mouse IgG1/k
B6: Ab3 (antibody, mouse IgG1, V domains shown)
VH: QVQLQQPGAELVKPGASVKLSCKASGYTFSSYWMHWVKQRPGQGLEWIGLIHPDSGSTNYNEMFKNKATLTVDRSSSTAYVQLSSLTSEDSAVYFCAGGGRLYFDYWGQGTTLTVSS
VL: B1 VL with S7T, F9L, N35D, H39R, S81T, W101Y
notes: mouse IgG1/k
B7: Ab16 (antibody, mouse IgG1, V domains shown)
VH: EVKLLESGGGLVQPGGSLKLSCAASGFDFSRYWMSWVRQAPGKGLEWIGEINPDSSTINYTPSLKDKFIISRDNAKNTLYLQMSKVRSEDTALYYCARPGFGNYIYAMDYWGQGTSVTVSS
VL: DIQMTQTTSSLSASLGDRVTINCRASQDISNFLNWYQQKPDGTVKLLIYYTSRLYLGVPSRFSGSGSGTDYSLTISNLEQEDIATYFCQQGNTLPPTFGGGTKLEIK
notes: mouse IgG1/k
B8: Ab6 (antibody, mouse IgG1, V domains shown)
VH: QVQLQQSGAELMKPGASVKISCKATGYTFSRYWIEWVKQRPGHGLEWIGEILPGSGSTNYNEKFKGKATFTADTSSNTAYMQVSSLTSEDSAVHYCARRGYGYVPYALDYWGQGTSVTVSS
VL: B7 VL with D1E, N22S, F32S, K45N, L56S, P96Y
notes: mouse IgG1/k
B9: Ab2 (antibody, mouse IgG1, V domains shown)
VH: QVQLQQPGAELVKPGASVKLSCKASGYTFTSYWMHWVKQRPGQGLEWIGMIHPDSGTTNYNEKFRSKATLTVDKSSSTAYMQLSSLTSEDSAVYYCAVYYGSTYWYFDVWGTGTTVTVSS
VL: B1 VL with S7T, F9L, S20Y, S32I, L42R, V99F, W101F, G105S
notes: mouse IgG1/k
B10: Ab11 (antibody, mouse IgG1, V domains shown)
VH: EVKLVESGGGLVQPGGSLRLSCATSGFTFTNYYMSWVRQPPGKALEWLGFIRNKANDYTTEYSASVKGRFTISRDNSQSILYLQMNTLRAEDSATYYCARESPGNPFAYWGQGTLVTVSA
VL: DIVMTQSPSSLTVTAGEKVTMTCKSSQSLLNSGTQKNFLTWYQQKPGQPPKLLIYWASTRESGVPDRFTGSGSGTDFTLTISSVQAEDLAVYFCQNDYIYPLTFGAGTKLELK
notes: mouse IgG1/k

Columns and labels:
Human full length B7-H3 = target: T1, Human full length B7-H3 (human, UniProt Q5ZPR3 29-534); assay: FACS, 3T12 transfectants
T1 construct: On 3T12 fibroblasts expressing full length human B7-H3 or on NCI-H1650 cells; signal peptide residues 1-28 stated; also called huB7-H3; CD276
T1 sequence: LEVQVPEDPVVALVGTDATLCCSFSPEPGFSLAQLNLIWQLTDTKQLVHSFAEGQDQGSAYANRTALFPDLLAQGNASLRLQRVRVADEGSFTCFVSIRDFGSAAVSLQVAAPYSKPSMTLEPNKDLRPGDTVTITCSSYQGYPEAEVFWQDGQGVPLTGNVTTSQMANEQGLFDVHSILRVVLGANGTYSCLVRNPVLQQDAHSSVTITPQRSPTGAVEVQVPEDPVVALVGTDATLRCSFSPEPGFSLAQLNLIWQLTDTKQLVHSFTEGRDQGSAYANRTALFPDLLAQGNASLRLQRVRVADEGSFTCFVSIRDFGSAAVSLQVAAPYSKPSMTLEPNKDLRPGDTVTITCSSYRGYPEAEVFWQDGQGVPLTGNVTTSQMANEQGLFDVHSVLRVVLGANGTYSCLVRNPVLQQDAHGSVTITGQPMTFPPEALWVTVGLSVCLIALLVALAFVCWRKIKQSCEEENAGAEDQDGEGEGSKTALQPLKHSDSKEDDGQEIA
Method: (§1) A selection of hits were subcloned using the MoFlo (Beckman, Indianapolis, Ind., US) by depositing a single cell per well into 96 well cell culture plates to ensure clonality of the cell line. Resulting colonies were screened for specificity by FACS using mouse 3T12 fibroblast cell lines expressing the human B7-H3, cynomolgous B7-H3 or mouse B7-H3. Isotype of each monoclonal antibody was determined using the Mouse Monoclonal Isostyping Kit (Roche, No. 11-493-027-001, Indianapolis, Ind., USA).

[1] = target: T2, Cynomolgous B7-H3 on cells (cynomolgus); assay: FACS, 3T12 transfectants
T2 construct: whole, on cells; also called cyB7-H3; cyno B7-H3
Method: as §1

Mouse B7-H3 on cells = target: T3, Mouse B7-H3 on cells (mouse, UniProt Q8VE98 29-316); assay: FACS, 3T12 transfectants
T3 construct: whole, on cells
T3 sequence (looked up): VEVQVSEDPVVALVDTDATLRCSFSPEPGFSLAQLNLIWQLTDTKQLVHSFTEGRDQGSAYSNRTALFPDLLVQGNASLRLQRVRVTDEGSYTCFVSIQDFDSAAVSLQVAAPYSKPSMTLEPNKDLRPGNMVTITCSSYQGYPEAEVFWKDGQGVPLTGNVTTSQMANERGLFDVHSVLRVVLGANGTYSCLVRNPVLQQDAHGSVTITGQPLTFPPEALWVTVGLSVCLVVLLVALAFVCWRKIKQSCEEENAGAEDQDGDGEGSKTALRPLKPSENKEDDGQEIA
Method: as §1

[2] = target: T4, Human B7-H3-ECD (His tag) (human, UniProt Q5ZPR3 29-461); assay: SPR, mAb captured, ECD analyte
T4 construct: SPR analyte; also called huB7-H3; soluble ECD of human B7-H3
T4 sequence: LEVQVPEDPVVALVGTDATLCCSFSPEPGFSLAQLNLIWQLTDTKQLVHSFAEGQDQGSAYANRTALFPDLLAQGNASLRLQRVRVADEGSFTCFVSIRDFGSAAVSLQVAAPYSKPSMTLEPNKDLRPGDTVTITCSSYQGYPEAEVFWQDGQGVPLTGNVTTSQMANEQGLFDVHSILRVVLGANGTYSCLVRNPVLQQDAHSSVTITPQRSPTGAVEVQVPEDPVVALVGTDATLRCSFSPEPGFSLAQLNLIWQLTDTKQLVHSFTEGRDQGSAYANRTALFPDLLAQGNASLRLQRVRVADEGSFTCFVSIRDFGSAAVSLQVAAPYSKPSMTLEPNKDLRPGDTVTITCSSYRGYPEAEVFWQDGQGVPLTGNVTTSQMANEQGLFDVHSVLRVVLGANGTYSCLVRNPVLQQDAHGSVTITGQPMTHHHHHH

Cyno B7-H3-ECD (his tag) = target: T5, Cyno B7-H3-ECD (his tag) (cynomolgus); assay: SPR, mAb captured, ECD analyte
T5 construct: SPR analyte; also called soluble ECD of cyno B7-H3
T5 chain: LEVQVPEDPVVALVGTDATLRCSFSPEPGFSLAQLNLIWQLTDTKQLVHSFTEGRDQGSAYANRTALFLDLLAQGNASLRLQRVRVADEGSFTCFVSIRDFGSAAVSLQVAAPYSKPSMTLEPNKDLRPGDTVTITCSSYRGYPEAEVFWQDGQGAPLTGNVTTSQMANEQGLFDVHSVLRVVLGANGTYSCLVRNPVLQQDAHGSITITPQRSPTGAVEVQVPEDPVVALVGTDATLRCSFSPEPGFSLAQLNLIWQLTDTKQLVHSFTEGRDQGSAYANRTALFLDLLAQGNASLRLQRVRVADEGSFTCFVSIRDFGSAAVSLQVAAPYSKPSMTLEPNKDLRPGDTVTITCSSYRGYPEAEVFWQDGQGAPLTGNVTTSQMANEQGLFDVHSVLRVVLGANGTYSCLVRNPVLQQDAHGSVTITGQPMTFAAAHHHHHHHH

| Binder | EC50 (Human full length B7-H3) [nM] | EC50 [1] [nM] | EC50 (Mouse B7-H3 on cells) [nM] | Kd [2] [nM] | koff [2] [s⁻¹] | kon [2] [M⁻¹ s⁻¹] | Kd (Cyno B7-H3-ECD (his tag)) [nM] | koff (Cyno B7-H3-ECD (his tag)) [s⁻¹] | kon (Cyno B7-H3-ECD (his tag)) [M⁻¹ s⁻¹] | binding result (Mouse B7-H3 on cells) |
| --- | --- | --- | --- | --- | --- | --- | --- | --- | --- | --- |
| B1 | 3.97 | 4.46 | 3.8 | 4.6 | 0.00019 | 41000 | 20 | 0.0042 | 200000 |  |
| B2 | 3.88 | 6.71 | 8.72 | 6.7 | 0.00025 | 38000 | ≤ 0.18 | ≤ 1e-05 | 55000 |  |
| B3 | 2.71 | 1.91 | 6.01 | 9.2 | 0.012 | 1.3e+06 | 200 | 0.28 | 1.4e+06 |  |
| B4 | 3.03 | 2.97 | 102 | 13 | 0.0014 | 110000 | 4.3 | 0.003 | 690000 |  |
| B5 | 1.94 | 4.12 | 25.8 | 17 | 0.0058 | 330000 | 8.4 | 0.0037 | 440000 |  |
| B6 | 1.66 | 1.42 | 0.94 | 19 | 0.01 | 520000 | 26 | 0.01 | 380000 |  |
| B7 | 3.94 | 4.28 | 319 | 24 | 0.0032 | 140000 | 7.5 | 0.0056 | 750000 |  |
| B8 | 1.59 | 1.53 |  | 840 | 0.01 | 12000 | 410 | 0.012 | 28000 | no binding |
| B9 | 1.7 | 1.5 | 1 | 24 | 0.0029 | 120000 | 50 | 0.011 | 230000 |  |
| B10 | 23.4 | 2.03 | 569 | 45 | 0.00089 | 20000 | 2.6 | 7.2e-05 | 27000 |  |
